The test has as its target transmembrane tumor necrosis factor (tmTNF) knock-in mutant, on bone-marrow-derived macrophages of 3TG mice (TNFR1-/-, TNFR2-/-, tmTNF KI/KI) (mouse (endogenous in BMDMs)) (UniProt P06804).

“etanercept, a soluble form of TNFR2 coupled to human Fc domain (from UniProt P20333 23-257) (Fc fusion)”: the internalization score of ETA-488 in 3TG BMDMs at 20 min, imaging cytometry was 0.73.

The values above are taken from article PMC8050384.
